Measurements from patent US20130315946A1.

B1: SPE B346~360 (as set forth in SEQ ID NO: 6) (peptide)
peptide: GADGRNFYHVNWGWG
B2: SPE B376~398 (as set forth in SEQ ID NO: 8) (peptide)
peptide: ALGTGGGAGGFNGYQSAVVGIKP

Molecular target: complement C3
Assay: ELISA, peptide coated on plate, serum C3 detected with anti-C3 antibody; relative to A2-0 (SPE B C192S)

Row | Binder | binding ability relative to reference A2-0 [%]
1 | B1 | > 50
2 | B2 | > 50
